# T1: PBP1A (E. coli, UniProt P02918 1-850, NT647 RED-NHS dye on amines (fl-PBP1A))
# T1 sequence (looked up): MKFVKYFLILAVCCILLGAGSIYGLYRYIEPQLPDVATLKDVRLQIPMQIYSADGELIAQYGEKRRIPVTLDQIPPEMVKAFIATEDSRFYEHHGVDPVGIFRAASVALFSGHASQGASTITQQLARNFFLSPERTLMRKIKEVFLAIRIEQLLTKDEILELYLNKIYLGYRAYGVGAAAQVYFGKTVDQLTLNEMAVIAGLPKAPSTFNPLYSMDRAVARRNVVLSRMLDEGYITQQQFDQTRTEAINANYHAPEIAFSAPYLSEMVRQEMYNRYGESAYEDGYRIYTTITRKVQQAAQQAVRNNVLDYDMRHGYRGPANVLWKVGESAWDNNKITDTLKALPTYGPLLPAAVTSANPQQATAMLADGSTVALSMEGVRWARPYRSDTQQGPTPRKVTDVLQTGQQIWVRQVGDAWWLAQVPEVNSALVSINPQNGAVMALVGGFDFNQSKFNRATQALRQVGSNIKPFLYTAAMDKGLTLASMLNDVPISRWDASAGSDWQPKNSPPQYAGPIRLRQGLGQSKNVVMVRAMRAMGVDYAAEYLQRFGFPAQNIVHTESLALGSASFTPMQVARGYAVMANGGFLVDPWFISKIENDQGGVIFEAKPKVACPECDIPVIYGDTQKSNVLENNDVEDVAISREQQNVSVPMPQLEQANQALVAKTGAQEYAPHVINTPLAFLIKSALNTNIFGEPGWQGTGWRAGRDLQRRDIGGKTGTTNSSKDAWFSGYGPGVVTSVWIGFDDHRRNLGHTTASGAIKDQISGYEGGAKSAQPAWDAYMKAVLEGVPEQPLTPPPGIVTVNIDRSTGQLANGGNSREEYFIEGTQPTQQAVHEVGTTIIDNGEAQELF
# T2: MepM (E. coli, UniProt P0AFS9 41-440)
# T2 sequence (looked up): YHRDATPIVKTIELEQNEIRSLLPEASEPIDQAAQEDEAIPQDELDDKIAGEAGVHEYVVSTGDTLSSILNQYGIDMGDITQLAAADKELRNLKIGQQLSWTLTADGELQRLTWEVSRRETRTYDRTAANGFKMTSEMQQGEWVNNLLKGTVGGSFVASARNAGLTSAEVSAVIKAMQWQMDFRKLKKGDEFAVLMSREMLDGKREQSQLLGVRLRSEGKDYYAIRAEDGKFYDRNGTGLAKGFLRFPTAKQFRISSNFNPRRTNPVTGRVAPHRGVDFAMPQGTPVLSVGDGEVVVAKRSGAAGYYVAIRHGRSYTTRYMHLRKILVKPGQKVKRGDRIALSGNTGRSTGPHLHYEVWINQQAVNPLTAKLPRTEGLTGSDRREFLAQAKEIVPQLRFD
# B1: PBP4 (native) (enzyme, E. coli, UniProt P24228 21-477, looked up)
# chain: ANVDEYITQLPAGANLALMVQKVGASAPAIDYHSQQMALPASTQKVITALAALIQLGPDFRFTTTLETKGNVENGVLKGDLVARFGADPTLKRQDIRNMVATLKKSGVNQIDGNVLIDTSIFASHDKAPGWPWNDMTQCFSAPPAAAIVDRNCFSVSLYSAPKPGDMAFIRVASYYPVTMFSQVRTLPRGSAEAQYCELDVVPGDLNRFTLTGCLPQRSEPLPLAFAVQDGASYAGAILKDELKQAGITWSGTLLRQTQVNEPGTVVASKQSAPLHDLLKIMLKKSDNMIADTVFRMIGHARFNVPGTWRAGSDAVRQILRQQAGVDIGNTIIADGSGLSRHNLIAPATMMQVLQYIAQHDNELNFISMLPLAGYDGSLQYRAGLHQAGVDGKVSAKTGSLQGVYNLAGFITTASGQRMAFVQYLSGYAVEPADQRNRRIPLVRFESRLYKDIYQNN
# B2: His-PBP7 (enzyme, E. coli, UniProt P0AFI5 26-310, looked up)
# chain: KTAAATTASQPEIASGSAMIVDLNTNKVIYSNHPDLVRPIASISKLMTAMVVLDARLPLDEKLKVDISQTPEMKGVYSRVRLNSEISRKDMLLLALMSSENRAAASLAHHYPGGYKAFIKAMNAKAKSLGMNNTRFVEPTGLSVHNVSTARDLTKLLIASKQYPLIGQLSTTREDMATFSNPTYTLPFRNTNHLVYRDNWNIQLTKTGFTNAAGHCLVMRTVINNKPVALVVMDAFGKYTHFADASRLRTWIETGKVMPVPAAALSYKKQKAAQMAAAGQTAQND
# What was measured:
# PBP1A = target: T1, PBP1A; experiment: MST
# PBP4 (native) [1] = target: B1; experiment: MST
# PBP4 (native) [2] = target: B1; experiment: pull-down
# [3] = target: preformed NlpI-PBP4 complex (E. coli, UniProt P0AFB1 19-294; P24228 21-477); experiment: MST
# MST = target: the molecule itself; experiment: MST
# MepM = target: T2, MepM; experiment: MST
# AUC = target: the molecule itself; experiment: AUC
# His-PBP7 = target: B2; experiment: pull-down
binder,measurement,setting,value
B1,Kd,PBP1A,106 nM
"PBP7 (enzyme, E. coli, UniProt P0AFI5 26-310, looked up, NT647 RED-NHS dye on amines where used as the labelled partner (fl-PBP7)) KTAAATTASQPEIASGSAMIVDLNTNKVIYSNHPDLVRPIASISKLMTAMVVLDARLPLDEKLKVDISQTPEMKGVYSRVRLNSEISRKDMLLLALMSSENRAAASLAHHYPGGYKAFIKAMNAKAKSLGMNNTRFVEPTGLSVHNVSTARDLTKLLIASKQYPLIGQLSTTREDMATFSNPTYTLPFRNTNHLVYRDNWNIQLTKTGFTNAAGHCLVMRTVINNKPVALVVMDAFGKYTHFADASRLRTWIETGKVMPVPAAALSYKKQKAAQMAAAGQTAQND",binding result,PBP4 (native) [1],binds
same,Kd,PBP1A,101 nM
B2,binding result,PBP4 (native) [2],binds
"LpoA (natural protein, E. coli, UniProt P45464 27-678, looked up, NT647 RED-Maleimide dye on cysteines where used as the labelled partner (fl-LpoA)) CGTHTPDQSTAYMQGTAQADSAFYLQQMQQSSDDTRINWQLLAIRALVKEGKTGQAVELFNQLPQELNDAQRREKTLLAVEIKLAQKDFAGAQNLLAKITPADLEQNQQARYWQAKIDASQGRPSIDLLRALIAQEPLLGAKEKQQNIDATWQALSSMTQEQANTLVINADENILQGWLDLQRVWFDNRNDPDMMKAGIADWQKRYPNNPGAKMLPTQLVNVKAFKPASTNKIALLLPLNGQAAVFGRTIQQGFEAAKNIGTQPVAAQVAAAPAADVAEQPQPQTVDGVASPAQASVSDLTGEQPAAQPVPVSAPATSTAAVSAPANPSAELKIYDTSSQPLSQILSQVQQDGASIVVGPLLKNNVEELLKSNTPLNVLALNQPENIENRVNICYFALSPEDEARDAARHIRDQGKQAPLVLIPRSSLGDRVANAFAQEWQKLGGGTVLQQKFGSTSELRAGVNGGSGIALTGSPITLRATTDSGMTTNNPTLQTTPTDDQFTNNGGRVDAVYIVATPGEIAFIKPMIAMRNGSQSGATLYASSRSAQGTAGPDFRLEMEGLQYSEIPMLAGGNLPLMQQALSAVNNDYSLARMYAMGVDAWSLANHFSQMRQVQGFEINGNTGSLTANPDCVINRNLSWLQYQQGQVVPVS",binding result,[3],binds
"NlpI (soluble version, residues 19-294) (natural protein, E. coli, UniProt P0AFB1 19-294, looked up, NT647 RED-NHS dye on amines where used as the labelled partner (fl-NlpI)) CSNTSWRKSEVLAVPLQPTLQQEVILARMEQILASRALTDDERAQLLYERGVLYDSLGLRALARNDFSQALAIRPDMPEVFNYLGIYLTQAGNFDAAYEAFDSVLELDPTYNYAHLNRGIALYYGGRDKLAQDDLLAFYQDDPNDPFRSLWLYLAEQKLDEKQAKEVLKQHFEKSDKEQWGWNIVEFYLGNISEQTLMERLKADATDNTSLAEHLSETNFYLGKYYLSLGDLDSATALFKLAVANNVHNFVEHRYALLELSLLGQDQDDLAESDQQ",Kd,MST,126 nM
same,Kd,PBP4 (native) [1],177 nM
same,Kd,MepM,152 nM
same,stoichiometry N,AUC,2
tagless NlpI (natural protein) CSNTSWRKSEVLAVPLQPTLQQEVILARMEQILASRALTDDERAQLLYERGVLYDSLGLRALARNDFSQALAIRPDMPEVFNYLGIYLTQAGNFDAAYEAFDSVLELDPTYNYAHLNRGIALYYGGRDKLAQDDLLAFYQDDPNDPFRSLWLYLAEQKLDEKQAKEVLKQHFEKSDKEQWGWNIVEFYLGNISEQTLMERLKADATDNTSLAEHLSETNFYLGKYYLSLGDLDSATALFKLAVANNVHNFVEHRYALLELSLLGQDQDDLAESDQQ,binding result,His-PBP7,binds
"MepS(C68A) (enzyme, E. coli, UniProt P0AFV4 27-188, looked up) CSANNTAKNMHPETRAVGSETSSLQASQDEFENLVRNVDVKSRIMDQYADWKGVRYRLGGSTKKGIDASGFVQRTFREQFGLELPRSTYEQQEMGKSVSRSNLRTGDLVLFRAGSTGRHVGIYIGNNQFVHASTSSGVIISSMNEPYWKKRYNEARRVLSRS",Kd,PBP1A,91 nM
